We go through 2 proteins from publication PMC5433297, “Isoflavone Malonyltransferases GmIMaT1 and GmIMaT3 Differently Modify Isoflavone Glucosides in Soybean (Glycine max) under Various Stresses” (Frontiers in Plant Science, 2017).

Test in all cases: HPLC malonyltransferase assay, Lineweaver-Burk
Common to all, as to assay type: biochemical, Glycine max

Substrate in data set [1]: COc1cc2c(=O)c(-c3ccc(O)cc3)coc2cc1O[C@@H]1O[C@H](CO)[C@@H](O)[C@H](O)[C@H]1O
To be noted: 40 μM malonyl-CoA, 20 mM potassium phosphate pH 7.2, 30°C. From the text:
(§1) HPLC malonyltransferase assay, Lineweaver-Burk on GmIMaT3

Substrate in data set [2]: O=c1c(-c2ccc(O)cc2)coc2cc(O[C@@H]3O[C@H](CO)[C@@H](O)[C@H](O)[C@H]3O)ccc12
To be noted: 40 μM malonyl-CoA, 20 mM potassium phosphate pH 7.2, 30°C.
Excerpt: as §1

Substrate in data set [3]: CC(C)(COP(=O)(O)OP(=O)(O)OC[C@H]1O[C@@H](n2cnc3c(N)ncnc32)[C@H](O)[C@@H]1OP(=O)(O)O)[C@@H](O)C(=O)NCCC(=O)NCCSC(=O)CC(=O)O
To be noted: 60 μM genistin as acceptor, 20 mM potassium phosphate pH 7.2, 30°C.
Excerpt: as §1

Substrate in data set [4]: O=c1c(-c2ccc(O)cc2)coc2cc(O[C@@H]3O[C@H](CO)[C@@H](O)[C@H](O)[C@H]3O)cc(O)c12
Conditions: 40 μM malonyl-CoA, 20 mM potassium phosphate pH 7.2, 30°C.
Excerpt: as §1

Substrate in data set [5]: COc1cc2c(=O)c(-c3ccc(O)cc3)coc2cc1O[C@@H]1O[C@H](CO)[C@@H](O)[C@H](O)[C@H]1O
Conditions: 40 μM malonyl-CoA, 20 mM potassium phosphate pH 7.2, 30°C. From the text: (§2) HPLC malonyltransferase assay, Lineweaver-Burk on GmIMaT1
This is another data set of the same source.

Substrate in data set [6]: O=c1c(-c2ccc(O)cc2)coc2cc(O[C@@H]3O[C@H](CO)[C@@H](O)[C@H](O)[C@H]3O)ccc12
Conditions: 40 μM malonyl-CoA, 20 mM potassium phosphate pH 7.2, 30°C.
Excerpt: as §2
This is another data set of the same source.

Substrate in data set [7]: CC(C)(COP(=O)(O)OP(=O)(O)OC[C@H]1O[C@@H](n2cnc3c(N)ncnc32)[C@H](O)[C@@H]1OP(=O)(O)O)[C@@H](O)C(=O)NCCC(=O)NCCSC(=O)CC(=O)O
Conditions: 60 μM genistin as acceptor, 20 mM potassium phosphate pH 7.2, 30°C.
Excerpt: as §2
The source holds these as a separate data set.

Substrate in data set [8]: O=c1c(-c2ccc(O)cc2)coc2cc(O[C@@H]3O[C@H](CO)[C@@H](O)[C@H](O)[C@H]3O)cc(O)c12
Conditions: 40 μM malonyl-CoA, 20 mM potassium phosphate pH 7.2, 30°C.
Excerpt: as §2
This is another data set of the same source.

B1: GmIMaT3 (Glycine max) (protein)
chain: MAETPTLRIHEVCPISPPQETPSTTIPFTFFDVLWLRLPPVERLFFYSFPNPTTTSSFFDTTILPNLKHSLSLTLHHFPPLAGTITWPLHTPLPLIAYTPGNSIPFRIAESNADFNTLSSNLSEVNNHRRNLIPHLPTSHEEASVLALQLTHFPNQGYSIGITSHHAALDGKSSTLFMKSWAHICSYLNTSPEEPLLFSLPKHLTPSFDRSVIRDPLGIGEIYAKSWTSFGGATNDRSLNVWDTLGGNQTDLVKGLFELTPLDIKKLKKLAESKFVVGDNKKKVRVTSFTVTCAYLLSCAVKAEQPNCERVHFVFNVDCRARLDPPIPETYFGNCVVALLASAKREELLGEEAFFKSVIGISEELNGLEGDVLNGADKWIPKIQSVVSETPRLFSVAGSPRFEVYGIDFGWGRPEKVDVASVNKTGAFSLSESRDHSGGIQIGLALTKNQMEAFSRVFAQGLESLES
notes: full-length ORF (467 residues), His-tagged fusion (pDEST17), E. coli BL21 (DE3), nickel resin, partially purified; cDNA from soybean roots; allele with three amino acid differences from GmMT7 and GmIF7MaT
Turning to B1, the Km in data set [1] amounted to 12.94 ± 1.3 µM; in data set [2], 30.12 ± 2.6 µM; in data set [3], 25.59 ± 2.2 µM; in data set [4], 26.67 ± 0.86 µM. The kcat/Km was 5.61e+06 ± 1.25e+06 M⁻¹ s⁻¹ in data set [1], 1.15e+06 ± 120000 M⁻¹ s⁻¹ in data set [2], 750000 ± 120000 M⁻¹ s⁻¹ in data set [3] and 1.54e+06 ± 140000 M⁻¹ s⁻¹ in data set [4].

B2: GmIMaT1 (Glycine max) (protein)
chain: MASHNIKIHDHLRVSPPSATEISLSLTFFDLFWLRFHPVERIFFYTLPTPHSNPSIFYSKLVPKLKTSLSRTLQHFPPLAGNVVWPDNTPNPTVQYTPGDSVSLVVAESEADFNHVLDNSPHKASELRCLVPHLDSSDSHASVVSFQITLFPNRGFSIGISTHHAVLDGKSSTIFIKAWASLCKTYNDDESSESSSPSLAPELKPFFDRTAIKDPSEIGLNFTVNWTEILTKFFPNENSDGRCLKLLPFPPRLEDHVRASFALTGADLEKLRKRVLSKWDIVDRGAESEPPRLSSFVLTCAYALACIAKAIHGVEKEKEKFAFAFTVDCRARLEPPIHDNYFGNCVWGHVVDAEPLDFIKEEAFAIVAKSIHSKIKMILDEGIFHGMESAFSRYESLGKDGVEIMGIAGSNRFGVYGTDFGWGKPAKVEIASVDRALTIGFAESKDGNDGVQVGLVLKKHVMDLFCTLFRQGMLDD
notes: full-length ORF (476 residues), His-tagged fusion (pDEST17), E. coli BL21 (DE3), nickel resin, partially purified; cDNA from soybean roots
In the case of B2, the Km turned out to be 13.11 ± 0.92 µM in data set [5], 36.28 ± 3.2 µM in data set [6], 18.30 ± 1.2 µM in data set [7] and 23.04 ± 1.5 µM in data set [8]. The kcat/Km came out at 5.21e+06 ± 140000 M⁻¹ s⁻¹ in data set [5], 820000 ± 10000 M⁻¹ s⁻¹ in data set [6], 440000 ± 70000 M⁻¹ s⁻¹ in data set [7] and 2.47e+06 ± 100000 M⁻¹ s⁻¹ in data set [8].
